Publication PMC4280530, “Uniform Orientation of Biotinylated Nanobody as an Affinity Binder for Detection of Bacillus thuringiensis (Bt) Cry1Ac Toxin” (Toxins, 2014)

Biological target: T1, Cry1F toxin (Bacillus thuringiensis, strain not …, UniProt Q03746)
T1 construct: Cry1F toxin of Bacillus thuringiensis, member of the Cry1 family; Commercial toxin
Assay: ELISA
Conditions: both partners purified

T1 sequence (Q03746 whole entry): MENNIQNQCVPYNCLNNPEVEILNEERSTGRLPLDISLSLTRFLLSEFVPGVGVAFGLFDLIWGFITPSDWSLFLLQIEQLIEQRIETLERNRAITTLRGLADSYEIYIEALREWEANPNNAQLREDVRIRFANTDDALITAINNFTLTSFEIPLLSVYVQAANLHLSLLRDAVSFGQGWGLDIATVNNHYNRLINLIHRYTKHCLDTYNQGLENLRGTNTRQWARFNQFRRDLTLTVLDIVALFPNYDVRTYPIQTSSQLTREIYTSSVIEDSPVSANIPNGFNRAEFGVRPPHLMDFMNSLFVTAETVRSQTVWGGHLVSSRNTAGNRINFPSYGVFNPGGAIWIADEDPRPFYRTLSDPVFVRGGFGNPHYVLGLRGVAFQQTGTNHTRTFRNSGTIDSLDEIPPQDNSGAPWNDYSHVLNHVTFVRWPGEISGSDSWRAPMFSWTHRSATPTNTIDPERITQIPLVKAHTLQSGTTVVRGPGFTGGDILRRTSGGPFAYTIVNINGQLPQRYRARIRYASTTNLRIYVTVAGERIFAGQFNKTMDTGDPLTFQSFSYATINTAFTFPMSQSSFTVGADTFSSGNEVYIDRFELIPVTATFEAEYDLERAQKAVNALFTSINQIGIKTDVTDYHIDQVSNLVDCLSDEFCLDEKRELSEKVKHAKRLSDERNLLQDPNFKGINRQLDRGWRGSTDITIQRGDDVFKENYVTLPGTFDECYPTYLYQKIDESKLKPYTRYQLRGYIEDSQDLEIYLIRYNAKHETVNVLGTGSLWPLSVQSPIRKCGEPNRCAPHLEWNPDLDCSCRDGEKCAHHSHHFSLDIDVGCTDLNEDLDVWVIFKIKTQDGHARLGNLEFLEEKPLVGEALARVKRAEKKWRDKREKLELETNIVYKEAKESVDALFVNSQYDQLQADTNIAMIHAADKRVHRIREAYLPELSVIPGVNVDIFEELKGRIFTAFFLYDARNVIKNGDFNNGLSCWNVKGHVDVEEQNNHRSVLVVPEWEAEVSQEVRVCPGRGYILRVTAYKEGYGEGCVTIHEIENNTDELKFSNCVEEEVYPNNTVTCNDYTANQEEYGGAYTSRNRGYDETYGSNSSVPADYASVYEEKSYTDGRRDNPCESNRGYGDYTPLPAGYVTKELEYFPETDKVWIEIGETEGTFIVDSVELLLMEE

B1: anti-Cry1Ac nanobody Nb44 (VHH)
VHH: QVQLQESGGGSVQAGGSLRLSCATSGLTYSARITWFRQAPEKEREGVATFSTGSGSTGYADSVKGRFTISQDNAKNTLYLQMNNLKPEDTAMYYCAADTSTSWRDIVLVARYKYWGQGTQVTVSS
notes: VHH from an immunised dromedary, in pMECS; HA tag is known from the detection with anti-HA tag antibody; also called Cry1Ac Nb44; source: E. coli WK6, periplasm, purified (Ni-NTA / His-Select IMAC); periplasmic extract in PE-ELISA
  binding result: no binding (tested: 10 μg·mL^−1)

B2: anti-Cry1Ac nanobody Nb61 (VHH)
VHH: QVQLQESGGGSVQAGGSLRLSCEASENTYNSVYMAWFRQAPEKEREGVAVLSTGGGRTYYTDSVKGRFTISRDNAKNMVYLQMNSLKPDDTAMYYCAATYTGDSYGPSLYYLTPGRYEYWGQGTQVTVSS
notes: VHH from an immunised dromedary, in pMECS; HA tag is known from the detection with anti-HA tag antibody; also called Cry1Ac Nb61; source: E. coli WK6, periplasm, purified (Ni-NTA / His-Select IMAC); periplasmic extract in PE-ELISA
  binding result: no binding (tested: 10 μg·mL^−1)
